In publication PMC6954420, “Heterochromatin protein 1α interacts with parallel RNA and DNA G-quadruplexes”:

Assays:
HP1α [1] = biological target: T1, HP1α (mouse, UniProt Q61686 1-191); test: BLI; K+; BLI: 100 mM KCl, 50 mM NaCl, 20 mM Na phosphate, pH 8 (G4) or pH 7 (i-motif, dsDNA), room temp, 500 nM oligo or titration; EMSA: 50 mM Tris-HCl pH 7.5, 100 mM KCl, 0.5 mM EDTA, 0.5 mM DTT, 0.1 mg/ml BSA, room temp 1 h; conditions: protein: recombinant, tags: N-terminal His6 (pPROEX HTb), chain copies: 2
HP1β = HP1β (mouse, UniProt P83917 1-185); test: as above; conditions: protein: recombinant; tags: N-terminal His6 (pPROEX HTb); chain copies: 2; antiparallel G4
HP1α 3K-A = HP1α 3K-A (mouse, UniProt Q61686 1-191, K104A;K105A;K106A); test: as above; conditions: protein: recombinant; tags: N-terminal His6 (pPROEX HTb); chain copies: 2; antiparallel G4
HP1γ = HP1γ (mouse, UniProt P23198 1-183); test: as above; conditions: protein: recombinant; tags: N-terminal His6 (pPROEX HTb); chain copies: 2; antiparallel G4
HP1α [2] = biological target: T1, HP1α; test: BLI; BLI: 100 mM KCl, 50 mM NaCl, 20 mM Na phosphate, pH 8 (G4) or pH 7 (i-motif, dsDNA), room temp, 500 nM oligo or titration; EMSA: 50 mM Tris-HCl pH 7.5, 100 mM KCl, 0.5 mM EDTA, 0.5 mM DTT, 0.1 mg/ml BSA, room temp 1 h; conditions: protein: recombinant, tags: N-terminal His6 (pPROEX HTb), chain copies: 2
HP1α [3] = biological target: T1, HP1α; test: BLI; pH 7; BLI: 100 mM KCl, 50 mM NaCl, 20 mM Na phosphate, pH 8 (G4) or pH 7 (i-motif, dsDNA), room temp, 500 nM oligo or titration; EMSA: 50 mM Tris-HCl pH 7.5, 100 mM KCl, 0.5 mM EDTA, 0.5 mM DTT, 0.1 mg/ml BSA, room temp 1 h; conditions: protein: recombinant, tags: N-terminal His6 (pPROEX HTb), chain copies: 2

T1 sequence (Q61686 whole entry): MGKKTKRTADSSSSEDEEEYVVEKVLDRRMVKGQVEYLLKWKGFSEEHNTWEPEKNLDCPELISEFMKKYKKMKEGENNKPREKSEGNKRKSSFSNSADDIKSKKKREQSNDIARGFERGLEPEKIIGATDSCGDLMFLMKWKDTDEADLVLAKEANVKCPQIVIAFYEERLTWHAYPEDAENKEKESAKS
HP1γ, sequence (P23198 whole entry): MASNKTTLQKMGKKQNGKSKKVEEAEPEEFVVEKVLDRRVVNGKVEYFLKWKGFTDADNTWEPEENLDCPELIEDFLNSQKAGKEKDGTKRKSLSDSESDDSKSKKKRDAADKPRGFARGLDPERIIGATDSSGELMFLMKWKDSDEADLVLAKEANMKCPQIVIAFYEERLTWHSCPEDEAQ
HP1α 3K-A, sequence (Q61686 whole entry K104A/K105A/K106A): as the sequence (Q61686 whole entry) above, with K104A, K105A, K106A counted along it
HP1β, sequence (P83917 whole entry): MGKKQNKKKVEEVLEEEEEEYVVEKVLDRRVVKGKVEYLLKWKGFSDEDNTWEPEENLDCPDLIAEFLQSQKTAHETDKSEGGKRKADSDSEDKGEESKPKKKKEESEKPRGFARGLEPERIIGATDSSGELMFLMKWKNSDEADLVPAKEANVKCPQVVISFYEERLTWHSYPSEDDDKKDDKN

AGGGGCGGGCGCGGGAGGAAGGGGGCGGGAGCGGGGCTG (structured_DNA) [bcl2]
Kd (HP1α [1]; parallel G4): 93.5 ± 1.6 nM

GGGTTAGGGTTAGGGTTAGGGTTAGGGTTAGGGTTAGGGTTAGGG (structured_DNA) [gTEL45]
binding result (HP1β): no binding
binding result (HP1α 3K-A): no binding
binding result (HP1α [1]; antiparallel G4): no binding
binding result (HP1γ): no binding

TGGGTTAGGGTGGGTTAGGGTGGGTTAGGGTGGGTTAGGGT (structured_DNA) [Oligo C]
Kd (HP1α [1]; parallel G4): 78.2 ± 0.3 nM

AGGGCGGTGTGGGAAGAGGGAAGAGGGGGAGG (structured_DNA) [kras]
Kd (HP1α [1]; parallel G4): 68.8 ± 0.7 nM

GGGAGGGAGGGCTGGGGG (structured_DNA) [src3]
Kd (HP1α [1]; parallel G4): 140 ± 2 nM

GGGGCAGCTGGGTCGCTCGGGGAACGGGG (structured_DNA) [src2]
Kd (HP1α [1]; antiparallel G4): 410 ± 20 nM

TGGGTTGGGTTGGGTTGGGTTGGGTTGGGTTGGGTTGGGT (structured_DNA) [Oligo B]
Kd (HP1α [1]; parallel G4, monomer-dimer equilibrium): 69.1 ± 0.9 nM

TGGGTTAGGGTTAGGGTTAGGGTGGGTTAGGGTTAGGGTTAGGGT (structured_DNA) [Oligo G]
binding result (HP1α [1]; antiparallel or hybrid G4): no binding

GGGCGGGCGCCAGGGAGGGG (structured_DNA) [ckit2]
Kd (HP1α [1]; parallel G4): 199 ± 3 nM

TGGGTGGGTTAGGGTGGGTGGGTGGGTTAGGGTGGGT (structured_DNA) [Oligo D]
Kd (HP1α [1]; parallel G4): 52.6 ± 1.1 nM

TTTTTTTTTTTTTTTTTTTTTTTTTTTTTTTTTTTTTTTTTTTTT (ssDNA) [Thy45]
binding result (HP1α [2]; unstructured): no binding

CCCTAACCCTAACCCTAACCCTAACCCTAACCCTAACCCTAACCC (structured_DNA) [cTEL45]
binding result (HP1α [3]; i-motif (partial at pH 7)): no binding

TGGGTTAGGGTTAGGGTGGGTGGGTTAGGGTTAGGGTGGGT (structured_DNA) [Oligo F]
Kd (HP1α [1]; parallel G4): 61.7 ± 1.5 nM

TGGGTGGGTTAGGGTTAGGGTGGGTGGGTTAGGGTTAGGGT (structured_DNA) [Oligo E]
Kd (HP1α [1]; parallel G4): 43.8 ± 1 nM

TCGTTCCGTTTTTCGTTCCGTTTTTCGTTCCGTTTTTCGTTCCGT (structured_DNA) [LL3rep]
binding result (HP1α [3]; mini-i-motif): no binding

ACCCAAUCCCAAUCCCAAUCCC (ssRNA) [rC-rich22]
binding result (HP1α [2]): no binding

GGGTGGGTAGGGTGGG (structured_DNA) [c-myc2]
Kd (HP1α [1]; parallel G4, at least dimer on native PAGE): 610 ± 40 nM

GGGCTGCTGGGACTGGTTGGGAGGGCACTCTGGGG (structured_DNA) [src16]
Kd (HP1α [1]; antiparallel G4): 1630 ± 1700 nM

TGGGTGGGTGGGTGGGTGGGTGGGTGGGTGGGT (structured_DNA) [Oligo A]
Kd (HP1α [1]; parallel G4): 86.8 ± 0.2 nM
